Test results from publication PMC8327961, “Nse5/6 inhibits the Smc5/6 ATPase and modulates DNA substrate binding” (The EMBO Journal, 2021).

Experiments:
[1] = target: T1, Smc5/6 core hexamer (Saccharomyces cerevisiae, UniProt Q08204+Q12749); experiment: pyruvate kinase/lactate dehydrogenase coupled ATPase assay; format: biochemical; settings: Walker B mutation in both Smc5 and Smc6, residue numbers not told; ATPase buffer pH 7.5, 2 mM MgCl2; 25 °C
T1 construct: full-length Smc5, Smc6, Nse1, Nse2, Nse3, Nse4 co-expressed in E. coli Rosetta (DE3); C-terminal 3C-Twin-Strep-tag on Smc6; with Non-structural maintenance of chromosomes element 1; E3 SUMO-protein ligase MMS21; Non-structural maintenance of chromosome element 3; Non-structural maintenance of chromosome element 4
T1 sequence (Q08204 whole entry): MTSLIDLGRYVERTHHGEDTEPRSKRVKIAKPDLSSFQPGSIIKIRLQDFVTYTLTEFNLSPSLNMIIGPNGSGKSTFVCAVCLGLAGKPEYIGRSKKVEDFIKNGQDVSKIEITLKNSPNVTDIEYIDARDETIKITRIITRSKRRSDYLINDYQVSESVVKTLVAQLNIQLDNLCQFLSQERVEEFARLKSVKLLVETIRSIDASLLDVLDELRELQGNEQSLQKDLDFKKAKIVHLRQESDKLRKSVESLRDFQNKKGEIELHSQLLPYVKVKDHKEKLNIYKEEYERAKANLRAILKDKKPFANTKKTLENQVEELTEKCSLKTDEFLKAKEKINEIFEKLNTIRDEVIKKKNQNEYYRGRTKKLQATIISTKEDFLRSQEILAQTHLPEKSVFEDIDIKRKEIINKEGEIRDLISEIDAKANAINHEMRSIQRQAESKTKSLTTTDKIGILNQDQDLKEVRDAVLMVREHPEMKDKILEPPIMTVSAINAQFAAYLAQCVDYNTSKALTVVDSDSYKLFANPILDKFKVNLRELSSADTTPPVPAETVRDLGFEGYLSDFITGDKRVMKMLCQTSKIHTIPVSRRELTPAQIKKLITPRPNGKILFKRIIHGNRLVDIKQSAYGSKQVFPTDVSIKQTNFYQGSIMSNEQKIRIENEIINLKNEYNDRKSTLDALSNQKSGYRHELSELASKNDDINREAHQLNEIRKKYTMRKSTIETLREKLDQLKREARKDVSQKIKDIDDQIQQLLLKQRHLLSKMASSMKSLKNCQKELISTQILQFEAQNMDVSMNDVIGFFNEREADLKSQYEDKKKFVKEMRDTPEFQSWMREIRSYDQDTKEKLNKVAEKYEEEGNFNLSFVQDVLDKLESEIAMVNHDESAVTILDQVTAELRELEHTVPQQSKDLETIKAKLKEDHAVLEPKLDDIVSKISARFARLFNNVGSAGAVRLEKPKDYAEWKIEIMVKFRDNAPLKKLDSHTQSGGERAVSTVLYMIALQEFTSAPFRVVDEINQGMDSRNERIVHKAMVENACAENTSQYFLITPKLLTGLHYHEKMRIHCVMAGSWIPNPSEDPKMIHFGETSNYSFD
T1 sequence (Q12749 whole entry): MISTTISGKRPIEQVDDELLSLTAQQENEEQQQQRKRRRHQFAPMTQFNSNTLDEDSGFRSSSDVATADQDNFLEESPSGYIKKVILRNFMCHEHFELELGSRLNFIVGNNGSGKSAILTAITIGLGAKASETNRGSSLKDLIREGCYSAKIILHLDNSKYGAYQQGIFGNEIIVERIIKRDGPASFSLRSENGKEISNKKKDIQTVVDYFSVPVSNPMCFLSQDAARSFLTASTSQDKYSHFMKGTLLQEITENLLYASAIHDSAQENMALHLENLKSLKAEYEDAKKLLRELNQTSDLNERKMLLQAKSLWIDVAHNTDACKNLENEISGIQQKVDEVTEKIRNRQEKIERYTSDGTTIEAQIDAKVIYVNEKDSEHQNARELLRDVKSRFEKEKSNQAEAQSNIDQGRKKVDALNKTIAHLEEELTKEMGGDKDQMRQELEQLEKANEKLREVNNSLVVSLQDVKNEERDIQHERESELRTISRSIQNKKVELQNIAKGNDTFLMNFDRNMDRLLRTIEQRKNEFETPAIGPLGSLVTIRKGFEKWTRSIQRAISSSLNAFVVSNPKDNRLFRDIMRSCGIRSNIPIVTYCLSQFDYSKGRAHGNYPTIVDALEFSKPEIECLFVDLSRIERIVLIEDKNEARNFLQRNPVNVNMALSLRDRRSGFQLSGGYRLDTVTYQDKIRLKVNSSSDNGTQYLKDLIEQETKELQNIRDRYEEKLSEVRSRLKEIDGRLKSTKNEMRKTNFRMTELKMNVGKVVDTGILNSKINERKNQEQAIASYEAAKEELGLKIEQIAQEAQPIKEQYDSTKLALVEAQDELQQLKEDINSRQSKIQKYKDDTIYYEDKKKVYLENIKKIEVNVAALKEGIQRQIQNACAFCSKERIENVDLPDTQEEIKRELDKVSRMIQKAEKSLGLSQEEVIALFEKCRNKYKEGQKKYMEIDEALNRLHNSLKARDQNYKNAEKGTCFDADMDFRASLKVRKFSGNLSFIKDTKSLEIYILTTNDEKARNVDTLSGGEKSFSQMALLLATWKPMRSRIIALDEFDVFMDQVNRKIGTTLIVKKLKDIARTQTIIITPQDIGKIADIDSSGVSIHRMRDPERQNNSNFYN
T1 sequence (Q07913 whole entry partner): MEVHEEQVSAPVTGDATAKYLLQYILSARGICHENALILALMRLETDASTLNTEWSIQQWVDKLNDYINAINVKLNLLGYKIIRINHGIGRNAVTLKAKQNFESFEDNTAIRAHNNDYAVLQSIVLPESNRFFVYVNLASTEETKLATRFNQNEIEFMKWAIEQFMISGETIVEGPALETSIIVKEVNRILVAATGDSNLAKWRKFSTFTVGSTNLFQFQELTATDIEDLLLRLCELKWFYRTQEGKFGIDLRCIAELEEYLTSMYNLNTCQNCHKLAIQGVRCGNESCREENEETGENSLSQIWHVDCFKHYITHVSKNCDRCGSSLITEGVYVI
T1 sequence (P38632 whole entry partner): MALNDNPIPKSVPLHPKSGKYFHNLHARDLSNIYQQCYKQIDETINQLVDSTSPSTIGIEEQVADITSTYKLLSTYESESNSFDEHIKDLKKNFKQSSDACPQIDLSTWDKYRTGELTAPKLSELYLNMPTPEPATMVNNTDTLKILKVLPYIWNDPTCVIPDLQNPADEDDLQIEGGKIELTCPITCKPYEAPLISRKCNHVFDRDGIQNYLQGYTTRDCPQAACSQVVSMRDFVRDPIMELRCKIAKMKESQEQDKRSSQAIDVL
T1 sequence (Q05541 whole entry partner): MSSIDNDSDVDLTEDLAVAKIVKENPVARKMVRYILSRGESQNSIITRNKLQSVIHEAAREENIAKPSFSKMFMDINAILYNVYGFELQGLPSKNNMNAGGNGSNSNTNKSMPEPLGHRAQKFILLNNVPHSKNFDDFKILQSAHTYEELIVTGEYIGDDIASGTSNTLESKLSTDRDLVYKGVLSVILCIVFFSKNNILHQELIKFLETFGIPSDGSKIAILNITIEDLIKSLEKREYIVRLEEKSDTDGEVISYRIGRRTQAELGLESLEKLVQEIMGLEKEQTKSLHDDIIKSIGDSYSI
T1 sequence (P43124 whole entry partner): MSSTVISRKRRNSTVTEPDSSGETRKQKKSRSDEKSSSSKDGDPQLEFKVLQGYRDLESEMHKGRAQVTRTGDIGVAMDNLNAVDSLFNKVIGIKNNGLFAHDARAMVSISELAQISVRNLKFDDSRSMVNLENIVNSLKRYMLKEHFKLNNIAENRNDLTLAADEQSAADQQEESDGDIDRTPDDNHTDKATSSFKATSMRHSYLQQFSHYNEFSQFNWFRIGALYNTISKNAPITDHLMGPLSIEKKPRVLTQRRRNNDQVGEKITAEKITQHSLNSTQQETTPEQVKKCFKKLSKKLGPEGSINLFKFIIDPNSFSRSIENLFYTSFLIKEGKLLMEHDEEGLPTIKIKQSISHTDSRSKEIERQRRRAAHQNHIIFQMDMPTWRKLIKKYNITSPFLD

[2] = target: T2, Nse5/6 dimer (Saccharomyces cerevisiae, UniProt Q03718;P40026 1-556;1-464); experiment: fluorescence anisotropy; ATPase buffer: 10 mM Hepes-KOH pH 7.5, 150 mM K-OAc, 2 mM MgCl2, 20% glycerol; anisotropy at 25 C; plasmid pulldown bound at room temperature, high-salt buffer; settings: protein: recombinant; copies: 1;1; blunt
T2 sequence 1: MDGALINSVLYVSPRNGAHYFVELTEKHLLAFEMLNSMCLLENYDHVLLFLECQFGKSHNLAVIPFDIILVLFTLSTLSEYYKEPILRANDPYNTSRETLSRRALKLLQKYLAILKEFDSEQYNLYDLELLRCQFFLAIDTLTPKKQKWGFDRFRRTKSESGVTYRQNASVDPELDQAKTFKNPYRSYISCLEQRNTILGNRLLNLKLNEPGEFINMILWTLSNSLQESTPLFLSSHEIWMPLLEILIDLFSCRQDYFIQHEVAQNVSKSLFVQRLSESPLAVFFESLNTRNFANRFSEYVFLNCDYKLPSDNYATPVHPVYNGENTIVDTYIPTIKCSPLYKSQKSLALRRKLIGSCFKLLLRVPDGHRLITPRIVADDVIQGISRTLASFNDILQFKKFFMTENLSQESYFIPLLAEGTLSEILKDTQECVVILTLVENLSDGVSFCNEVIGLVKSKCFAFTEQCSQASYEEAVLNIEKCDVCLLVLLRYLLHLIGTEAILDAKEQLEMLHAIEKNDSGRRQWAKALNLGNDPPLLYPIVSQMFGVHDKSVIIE
T2 sequence 2: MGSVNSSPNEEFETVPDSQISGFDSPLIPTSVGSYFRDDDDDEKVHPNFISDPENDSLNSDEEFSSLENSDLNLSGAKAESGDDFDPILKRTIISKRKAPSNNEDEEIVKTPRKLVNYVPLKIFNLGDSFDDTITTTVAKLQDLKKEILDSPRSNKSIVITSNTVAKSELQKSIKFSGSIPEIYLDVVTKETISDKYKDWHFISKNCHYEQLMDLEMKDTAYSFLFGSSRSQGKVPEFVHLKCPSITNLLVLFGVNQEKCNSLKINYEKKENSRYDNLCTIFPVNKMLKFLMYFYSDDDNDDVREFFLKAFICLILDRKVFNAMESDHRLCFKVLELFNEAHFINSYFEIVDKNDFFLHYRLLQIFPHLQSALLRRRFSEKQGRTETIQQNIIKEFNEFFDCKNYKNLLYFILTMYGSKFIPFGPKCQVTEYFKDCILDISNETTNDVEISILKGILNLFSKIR

[3] = target: Smc5/6 hexamer (Smc5, Smc6, Nse1, Nse2, Nse3, Nse4) (Saccharomyces cerevisiae, UniProt Q08204;Q12749;Q07913;P38632;Q05541;P43124 1-1093;1-1114;1-336;1-267;1-303;1-402); experiment: as above; settings: protein: recombinant; tags: C-terminal 3C-Twin-Strep on Smc6; copies: 1;1;1;1;1;1; blunt
[4] = target: Smc5/6 octamer (hexamer plus Nse5/6) (Saccharomyces cerevisiae, UniProt Q08204;Q12749;Q07913;P38632;Q05541;P43124;Q03718;P40026 …); experiment: as above; settings: protein: recombinant; tags: C-terminal 3C-Twin-Strep on Smc6; reconstitution with Nse5 C-terminal AviTag-3C-Twin-Strep; copies: 1;1;1;1;1;1;1;1; blunt

With `Nc1ncnc2c1ncn2[C@@H]1O[C@H](COP(=O)(O)OP(=O)(O)OP(=O)(O)O)[C@@H](O)[C@H]1O` [ATP] the “no noticeable ATP hydrolysis” value [1] was “did not display noticeable ATP hydrolysis activity”.

B1: 40bpDNA (STI699/STI700) (dsDNA)
DNA 1: TTAGTTGTTCGTAGTGCTCGTCTGGCTCTGGATTACCCGC
DNA 2: GCGGGTAATCCAGAGCCAGACGAGCACTACGAACAACTAA
With B1 the binding result [2] was “no binding”, the Kd [3] was roughly 150 nM and the Kd [4] was roughly 100 nM.
